Measurements published in doi:10.1101/2025.08.13.670108v1.

Key:
[1] = system: O=C(O)/C=C/c1c[nH]cn1; assay: purified protein; conditions: pH 8.0; 25.0 °C
[2] = system: C[N+](C)(C)[C@@H](Cc1cnc[nH]1)C(=O)[O-]; assay: purified protein; format: biochemical, Shewanella woodyi; conditions: pH 8.5

Substance	Km [1] [µM]	Km [2] [µM]
Swoo_3912 (Shewanella woodyi ATCC 51908)	0.7 ± 0.1	
Swoo_3913 (Shewanella woodyi ATCC 51908)		103 ± 8
